Reference: paper PMC5790014, “Type IX secretion system PorM and gliding machinery GldM form arches spanning the periplasmic space” (Nature Communications, 2018)

Legend:
[1] = molecular target: the molecule itself; assay: crystal structure; GldMp; sitting-drop vapor diffusion at 293K; 0.1 M Hepes pH 7-8, 26-46% (w/v) PEG 600; 2 Å
[2] = molecular target: the molecule itself; assay: crystal structure; PorMp224; 0.02 M sodium acetate pH 4.8-5.8, 0.2 M zinc acetate, 15-25% (w/v) PEG3350; 2.85 Å
[3] = molecular target: T1, PorMp315 (PorM periplasmic fragment, domains D3 and D4 in the crystal) (Porphyromonas gingivalis, UniProt B2RLE8); assay: crystal structure; PorMp315/nb130, 1/1 complex at 10 mg/mL; 0.2 M ammonium citrate tribasic pH 7.0, 20% (w/v) PEG3350; 2.1 Å; conditions: both partners purified
T1 construct: PorM, Porphyromonas gingivalis, GI 188595218; cloned as residues 224-516, domain D2 was cleaved by a protease during crystallization, the structure spans residues 315-516; Construct cloned as 224-516 (pLIC03); the crystallised species is 315-516

[4] = molecular target: the molecule itself; assay: as above
[5] = molecular target: T2, PorMpNt (N-terminal domain D1 of the PorM periplasmic domain) (Porphyromonas gingivalis (sequence …)); assay: crystal structure; PorMNt/nb01, 1/1 complex at 10 mg/mL; 0.1 M Hepes pH 7.5, 0.2 M NaCl, 25% (w/v) PEG3350; 2.4 Å; conditions: both partners purified
T2 construct: PorM, Porphyromonas gingivalis, GI 188595218, N-terminal domain D1; residues 30-212 by the results, residues 44-217 by the methods; the first helix (residues 30-69) is missing in the crystal, probably cleaved during crystallization; also called PorMNt

B1: GldM periplasmic domain (GldMp) (domain or fragment, Flavobacterium johnsoniae, UniProt Q5EGM3 36-513, looked up)
chain: FGLMNEKFEAANTSSVTTNESLLTSLDQKAAEAKGEFAKAAETAHKVQAASKEFYDYIGTLKTQAVKGFEVDKETGKMPYEAMDRGDNIDDWFTGDGYTKKGNEIIAKIEKYKSDIKAALGTDKKYAGIISEVEKKFDVSDVKNKEGIKEKYLAYHFKGFPAIASAAKLSAWQNDVKKTEADVYNSALGKAAVAAASYSNYQAIVVLDKNAYFQGEKVTGKVVLGRYDENTKPTSFQGPGQIVNGQAVISLTAGGVGEQDINGQFTFLEDGKNIPLKFSGKYVVVPRPNSATISADKMNVVYRGVVNPISVSFAGVDANKIVASAPGLSSAGKPGKYNMSPGQGTEATISVTGTLPNGDKVTDKKTFRIKGIPGPTGTIRGEMGVVKGPKSNLEIATIGAKLLDFDFEVGLDVVGFNMKIAGQPTVVVTGNKMNAQCKSVLARAGKGDQVTISEIKTKLVGAGSYLLPRTAPVIYEIQ
notes: GldM, Flavobacterium johnsoniae (ATCC17061), GI 58531935, periplasmic domain, residues 36-513; Cloned into pLIC03 (a pET28a+ derivative); A SeMet derivative was used for phasing
[1]
  stoichiometry N: 2

B2: PorMp224 (PorM periplasmic fragment, residues 224-516) (domain or fragment)
chain: RVNSITAQVIPQSQIVMSGDTYKANIVLSSVDTTQRPDVFVNGKLLSPENMGLFTATAGAPGTYPVKGYIEMMGNDGVKIRRDFESEYFVTEPMASVAPTMMNVLYAGIDNPINIAVPGVAQQNVSATINNGTLTRRGNLWIARPTKVGSEAIISVTAQSGGRTIQMAKTTLRVRALPDPLPYIEYKDVQGNTKRFKGGRLGKREILAAGGIKAALDDDLLEVNYTVVKFQLVFYDSMGNSIPEVSDGASFSERQKRQIQNLGKGKRFYVTEVIARGPDGIERKIPAIEVIVN
notes: PorM, Porphyromonas gingivalis, GI 188595218, tryptic fragment of the periplasmic domain, residues 224-516 (domains D2-D4); source: trypsin cleavage of PorMp (made in Rosetta E. coli cells), fragment purified
[2]
  binding result: binds

B3: nanobody nb130 (VHH)
VHH: QVQLVESGGGLVQAGGSLRLSCAASGRTFSSYVMGWFRQAPGKEREFVTAISWSGGSIHYADSVKGRFTISRDNAKNTVYLQMNSLKPEDTAVYTCVAGFAGYGSFTSRSARDSDKYDYWGQGTKVTVSS
notes: llama nanobody raised against PorMp; source: E. coli WK6, periplasmic fraction, purified (Ni-NTA, Superdex 75)
[3]
  binding result: binds

B4: PorMp315 (PorM periplasmic fragment, domains D3 and D4 in the crystal) (domain or fragment, Porphyromonas gingivalis, UniProt B2RLE8 315-516, looked up)
chain: EPMASVAPTMMNVLYAGIDNPINIAVPGVAQQNVSATINNGTLTRRGNLWIARPTKVGSEAIISVTAQSGGRTIQMAKTTLRVRALPDPLPYIEYKDVQGNTKRFKGGRLGKREILAAGGIKAALDDDLLEVNYTVVKFQLVFYDSMGNSIPEVSDGASFSERQKRQIQNLGKGKRFYVTEVIARGPDGIERKIPAIEVIVN
notes: PorM, Porphyromonas gingivalis, GI 188595218; cloned as residues 224-516, domain D2 was cleaved by a protease during crystallization, the structure spans residues 315-516; Construct cloned as 224-516 (pLIC03); the crystallised species is 315-516
[4]
  binding result: binds

B5: nanobody nb01 (VHH)
VHH: DVQLVESGGGLVQAGGSLRVSCAASGRTFSSYSMGWFRQAPGKEREFVAAISRSDNSTYYADSVKGRFTISRDSAKNTVYLQMNSLKPEDTAVYYCAATPYGSRYYLRELREYDYWGQGTQVTVSS
notes: as for B3
[5]
  binding result: binds
